Tests used:
[1] = molecular target: E1o (S. scrofa full-length E1o, GST tag cut off) (S. scrofa); assay: SPR
[2] = molecular target: the molecule itself; assay: cryo-electron tomography with subtomogram averaging

E3 (S. scrofa full-length E3, GST tag cut off) (from UniProt P09623 36-509) (natural protein)
Kd [1]: 1.84 µM

B1: E3 subunit (dihydrolipoyl dehydrogenase) of native 2-oxoglutarate dehydrogenase complex from Sus scrofa heart (natural protein)
chain: ADQPIDADVTVIGSGPGGYVAAIKAAQLGFKTVCIEKNETLGGTCLNVGCIPSKALLNNSHYYHMAHGKDFASRGIEMSEVRLNLEKMMEQKSNAVKALTGGIAHLFKQNKVVRVNGYGKITGKNQVTATKADGSTEVINTKNILIATGSEVTPFPGITIDEDTVVSSTGALSLKKVPEKMVVIGAGVIGVELGSVWQRLGADVTAVELLGHVGGIGIDMEVSKNFQRILQKQGFKFKLNTKVIGATKKSDGNIDVSIEAASGGKAEVITCDVLLVCIGRRPFTQNLGLEELGIELDPRGRIPVNTRFQTKIPNIYAIGDVVAGPMLAHKAEDEGIICVEGMAGGAVHIDYNCVPSVIYTHPEVAWVGKSEEQLKEEGIEYKVGKFPFAANSRAKTNADTDGMVKILGQKSTDRVLGAHIIGPGAGEMINEAALALEYGASCEDIARVCHAHPTLSEAFREANLAASFGKAINF
binding result [2]: binds

From PMC11436768 (Nature Communications, 2024)
